%Dimer (covalent) and %HMWO (covalent high-molecular-weight oligomers) data for 1 substance are collected here from article PMC3399080.

Test [1] deals with Recombinant human insulin oxidized by metal-catalyzed oxidation (copper(II)/ascorbate) (human). The test is described as follows: SEC; insulin oxidized in 50 mM sodium citrate, pH 3.0, 3 h at room temperature; same column and dissociating mobile phase; UV 276 nm; covalent aggregates only.
Test [2] has the same target. The test is described as follows: SEC; insulin oxidized in 50 mM PB, pH 7.4, 3 h at room temperature; Insulin HMWP column, mobile phase 1 g/L L-arginine in water/acetonitrile/glacial acetic acid 65:20:15, which dissociates non-covalent aggregates; UV 276 nm; covalent dimers and oligomers only.
For test [3] the target is unchanged. The experiment in a line: SEC; insulin oxidized in 50 mM sodium citrate, pH 3.0, then exchanged into 50 mM PB, pH 7.4, and left 12 h at room temperature; same column and dissociating mobile phase; UV 276 nm; covalent aggregates only.
The target is the same in test [4]. The experiment in a line: SEC; insulin oxidized in 250 mM ammonium bicarbonate, pH 8.0, 3 h at room temperature (ammonia competes for Michael addition); same column and dissociating mobile phase; UV 276 nm; covalent aggregates only.

As for “Recombinant human insulin oxidized by metal-catalyzed oxidation (copper(II)/ascorbate) (natural protein)”, the %Dimer (covalent) in test [1] came to 0.8%; in test [2], 18.8%; in test [3], 9.3%; in test [4] it was 3.9%. Besides, the figures for the %HMWO (covalent high-molecular-weight oligomers) in test [2] and in test [3] were 6.8% and 1.9%, respectively.
